± gives the uncertainty stated by the source.
Experiment: self-splicing fitness, log relative to wild type (ln ratio); higher = more splicing; Tetrahymena group I intron in knt gene, E. coli kanamycin selection, DiMSum; sequences stand for … in CUCUCU…GGAGGGAAAAGUUAUCAGGCAUGCACCUGGUAGCUAGUCUUUAAACCAAUAGAUUGCAUCGGUUUAAAAGGCAAGACCGUCAAAUUGCGGGAAAGGGGUCAACAGCCGUUCAGUACCAAGUCUCAGGGGAAACUUUGAGAUGGCCUUGCAAAGGGUAUGGUAAUAAGCUGACGGACAUGGUCCUAACCACGCAGCCAAGUCCUAAGUCAACAGAUCUUCUGUUGAUAUGGAUGCAGUUCACAGACUAAAUGUCGGUCGGGGAAGAUGUAUUCUUCUCAUAAGAUAUAGUCGGACCUCUCCUUAAUGGGAGCUAGCGGAUGAAGUGAUGCAACACUGGAGCCGCUGGGAACUAAUUUGUAUGCGAAAGUAUAUUGAUUAGUUUUGGAGUACUCGUGGUCG
Procedure, shortened: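 Fitness was computed with DiMSum as the error-weighted combination of replicate fold changes, kanamycin versus none, each normalised to wild type. The library randomised all eight intron nucleotides of the P1ex region, with the intron placed in the knt kanamycin-resistance gene on pET-22b(+) in E. coli BL21(DE3). Six replicate transformations were grown overnight at 37°C or 30°C on LB agar with or without 25 μg/mL kanamycin, plus 100 μg/mL carbenicillin, 50 μM IPTG and 0.2% rhamnose. Pooled colonies were amplicon-sequenced on an Illumina HiSeq 2500.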

| Sequence | self-splicing fitness (ln) (30 °C) | self-splicing fitness (ln) (37 °C) |
| --- | --- | --- |
| GUCCAGCAAUAUUACGUGAC | -1.23 ± 0.13 | -1.93 ± 0.16 |
| GUCCAGCAAUAUUACGUGAG | 0.151 ± 0.044 | 0.375 ± 0.065 |
| GUCCAGCAAUAUUACGUGGG | -3.68 ± 0.13 | -2.36 ± 0.14 |
| GUCCAGCAAUAUUACGUUAA | -1.64 ± 0.1 | -0.751 ± 0.079 |
| GUCCAGCAAUAUUACGUUAC | -1.55 ± 0.089 | -0.179 ± 0.1 |
| GUCCAGCAAUAUUACGUUGC | -2.05 ± 0.13 | -0.538 ± 0.16 |
| GUCCAGCAAUAUUACGUUUG | -2.85 ± 0.11 | -0.981 ± 0.1 |
| GUCGAGCAAUAUUACGAAAC | -2.72 ± 0.41 | -0.657 ± 0.37 |
| GUCGAGCAAUAUUACGAACA | -1.67 ± 0.37 | -0.344 ± 0.29 |
| GUCGAGCAAUAUUACGAAUC | -1.52 ± 0.11 | -0.929 ± 0.15 |
| GUCGAGCAAUAUUACGACUU | -1.88 ± 0.27 | -1.3 ± 0.32 |
| GUCGAGCAAUAUUACGCAAA | -2.51 ± 0.39 | – |
| GUCGAGCAAUAUUACGCAAU | -1.08 ± 0.1 | -0.467 ± 0.14 |
| GUCGAGCAAUAUUACGCCAA | -2.68 ± 0.35 | -2.6 ± 0.48 |
| GUCGAGCAAUAUUACGCGGC | -3.88 ± 0.47 | -2.25 ± 0.39 |
| GUCGAGCAAUAUUACGCGGG | -2.85 ± 0.15 | -1.94 ± 0.19 |
| GUCGAGCAAUAUUACGGAAA | -2.83 ± 0.23 | -2.11 ± 0.22 |
| GUCGAGCAAUAUUACGGAAC | -3.01 ± 0.19 | -1.9 ± 0.2 |
| GUCGAGCAAUAUUACGGACU | -3.29 ± 0.47 | -1.73 ± 0.24 |
| GUCGAGCAAUAUUACGGCUA | -1.78 ± 0.21 | -1.47 ± 0.18 |
| GUCGAGCAAUAUUACGGGUG | -4.13 ± 0.25 | -2.11 ± 0.19 |
| GUCGAGCAAUAUUACGGGUU | -3.03 ± 0.2 | -1.04 ± 0.16 |
| GUCGAGCAAUAUUACGGUUG | -2.68 ± 0.2 | -2.15 ± 0.26 |
| GUCGAGCAAUAUUACGUAAG | -2.59 ± 0.14 | -1.34 ± 0.18 |
| GUCGAGCAAUAUUACGUCCC | -1.03 ± 0.19 | -0.687 ± 0.33 |
| GUCGAGCAAUAUUACGUGAC | -4.99 ± 0.45 | -2.57 ± 0.35 |

| Sequence | self-splicing fitness (ln) (30 °C) | self-splicing fitness (ln) (37 °C) |
| --- | --- | --- |
| GUCUAGCAAUAUUACGAAAC | -0.862 ± 0.13 | -0.29 ± 0.14 |
| GUCUAGCAAUAUUACGAAGG | -2.34 ± 0.18 | -1.43 ± 0.16 |
| GUCUAGCAAUAUUACGACUU | -1.32 ± 0.12 | -0.56 ± 0.11 |
| GUCUAGCAAUAUUACGAGGU | – | -1.99 ± 0.4 |
| GUCUAGCAAUAUUACGAUGA | -1.21 ± 0.28 | -0.329 ± 0.13 |
| GUCUAGCAAUAUUACGCAUC | -0.727 ± 0.13 | 0.171 ± 0.14 |
| GUCUAGCAAUAUUACGCCAA | – | -0.981 ± 0.29 |
| GUCUAGCAAUAUUACGCUCA | 0.346 ± 0.16 | 0.103 ± 0.19 |
| GUCUAGCAAUAUUACGCUGA | -1.21 ± 0.16 | -0.707 ± 0.13 |
| GUCUAGCAAUAUUACGCUGC | – | -2.71 ± 0.34 |
| GUCUAGCAAUAUUACGGACA | -1.63 ± 0.18 | -0.275 ± 0.14 |
| GUCUAGCAAUAUUACGGCAC | -0.276 ± 0.14 | 0.385 ± 0.13 |
| GUCUAGCAAUAUUACGGGAA | -1.24 ± 0.086 | -0.758 ± 0.084 |
| GUCUAGCAAUAUUACGUCAU | -0.258 ± 0.12 | -0.425 ± 0.081 |
| GUCUAGCAAUAUUACGUCUU | -0.274 ± 0.09 | 1.25 ± 0.099 |
| GUCUAGCAAUAUUACGUGGA | -2.12 ± 0.23 | -2.69 ± 0.24 |
| GUCUAGCAAUAUUACGUGGC | -2.84 ± 0.44 | -3.01 ± 0.43 |
| GUCUAGCAAUAUUACGUGUC | -0.8 ± 0.089 | -0.0601 ± 0.086 |
| GUGAAGCAAUAUUACGAAAG | -1.41 ± 0.15 | -0.599 ± 0.15 |
| GUGAAGCAAUAUUACGAACG | -1.57 ± 0.4 | – |
| GUGAAGCAAUAUUACGAAGC | -2.06 ± 0.08 | -1.06 ± 0.11 |
| GUGAAGCAAUAUUACGACAG | -2.07 ± 0.16 | -1.25 ± 0.17 |
| GUGAAGCAAUAUUACGACGC | 0.482 ± 0.12 | 0.847 ± 0.17 |
| GUGAAGCAAUAUUACGAGCA | 0.204 ± 0.1 | -0.115 ± 0.14 |
| GUGAAGCAAUAUUACGAGCU | -1.12 ± 0.14 | -1.19 ± 0.21 |
| GUGAAGCAAUAUUACGCCAG | -1.09 ± 0.2 | -1.1 ± 0.22 |

| Sequence | self-splicing fitness (ln) (30 °C) | self-splicing fitness (ln) (37 °C) |
| --- | --- | --- |
| GUGAAGCAAUAUUACGCCGA | -0.95 ± 0.15 | -0.474 ± 0.16 |
| GUGAAGCAAUAUUACGCCUC | -1.22 ± 0.25 | -1.09 ± 0.48 |
| GUGAAGCAAUAUUACGCGCA | -0.00454 ± 0.099 | 0.509 ± 0.13 |
| GUGAAGCAAUAUUACGCUAC | -3.39 ± 0.27 | -1.95 ± 0.31 |
| GUGAAGCAAUAUUACGCUUG | -1.44 ± 0.11 | -0.0927 ± 0.098 |
| GUGAAGCAAUAUUACGGAUU | -0.624 ± 0.1 | -0.344 ± 0.12 |
| GUGAAGCAAUAUUACGGCCC | -0.145 ± 0.18 | – |
| GUGAAGCAAUAUUACGGCUU | -4.92 ± 0.36 | -3.3 ± 0.26 |
| GUGAAGCAAUAUUACGGGAU | -1.1 ± 0.07 | -0.971 ± 0.093 |
| GUGAAGCAAUAUUACGUAAG | -0.979 ± 0.088 | -0.0954 ± 0.13 |
| GUGAAGCAAUAUUACGUAAU | -1.19 ± 0.057 | -0.668 ± 0.069 |
| GUGAAGCAAUAUUACGUCGC | -2.77 ± 0.25 | -1.75 ± 0.18 |
| GUGAAGCAAUAUUACGUGAA | -2.63 ± 0.11 | -0.504 ± 0.12 |
| GUGAAGCAAUAUUACGUGCG | -0.0545 ± 0.077 | 0.038 ± 0.094 |
| GUGAAGCAAUAUUACGUUGU | -2.68 ± 0.17 | -1.63 ± 0.15 |
| GUGCAGCAAUAUUACGAAAU | -1.31 ± 0.084 | -0.452 ± 0.097 |
| GUGCAGCAAUAUUACGAGGC | -1.83 ± 0.31 | -2.43 ± 0.26 |
| GUGCAGCAAUAUUACGAUUU | -1.06 ± 0.1 | -0.209 ± 0.12 |
| GUGCAGCAAUAUUACGCAUC | – | -3.79 ± 0.37 |
| GUGCAGCAAUAUUACGCCCU | -1.57 ± 0.14 | -0.805 ± 0.16 |
| GUGCAGCAAUAUUACGCCUU | -1.26 ± 0.16 | -0.215 ± 0.14 |
| GUGCAGCAAUAUUACGCGGC | -1.7 ± 0.14 | -2.51 ± 0.23 |
| GUGCAGCAAUAUUACGCGUG | -1.52 ± 0.11 | -1.66 ± 0.16 |
| GUGCAGCAAUAUUACGGACC | -0.711 ± 0.31 | – |
| GUGCAGCAAUAUUACGGCCU | -0.775 ± 0.11 | 0.175 ± 0.13 |
| GUGCAGCAAUAUUACGGCUA | -0.0246 ± 0.077 | 0.17 ± 0.096 |

Source: the supplement of paper PMC7877785
